Assay results from the nanobody polyreactivity screen of Harvey et al. (2022).

Experiment: yeast display, Sf9 membrane polyspecificity reagent, FACS + sequencing; frameworks hold sequencing errors
In short: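 After 36–48 hours of galactose induction, yeast (Saccharomyces cerevisiae BJ5465) displaying a synthetic nanobody library were stained at 4 °C for 1 hour with 10% biotinylated, detergent-solubilized Sf9 membrane reagent. Streptavidin microbeads enriched the stained cells before FACS sorting into low and high (top ~1%) gates on anti-HA and streptavidin fluorescence. Each clone's polyreactivity label reflects its gate of origin.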

Sequence | polyreactivity (PSR sort gate)
QVQLVESGGGLVQAGGSLRLSCAASGPTFYKYAMGWYRQAPGKEREFVATITRRGGSTYYADSVKGRFTISRDNAKNTVYLQMNSLNPEDTAVYYCAKEIFLKGPDGHDYWGQGTQVTVSS | low polyreactivity
QVQLVESGGGLVQAGGSLRLSCAASGPTFYYYDMGLYRPAPGKERELVAAISATGGRTYYADSVKGRFTISRDNAKNTVYLQMNSLKPEDTAVYYCAAETPYLRRRLGMDYWGQGTQVTVSS | high polyreactivity
QVQLVESGGGLVQAGGSLRLSCAASGRFFVPYFIGSYRQAPGTERELVASISDSDTSTYYADSVKGRFTISRDNAKNTVYLQMNSLKPEDTAVYYCNVDYWGQGTQVTLSS | low polyreactivity
QVQLVESGGGLVQAGGSLRLSCAASGRIFADYAMGWNRHAPGKQRELVAAITWSGDRTYYADSVKGRFTISRDNAKNTVYLQMNSLKPEDTAVYYCAARARLRRYNYWGQGTQVTVSS | high polyreactivity
QVQLVESGGGLVQAGGSLRLSCAASGRIFAFNVMGWYRQAPGKEREMVAAISTRDGSTYYADSVKGRFTISRDNAKNTVYLQMNSLIPEDTAVYYCNAVVRYYDWGYWDYDYWGQGTQVTVSS | low polyreactivity
QVQLVESGGGLVQAGGSLRLSCAASGRIFAFYAMGWSRPAPGKERELVAAITSGGSTKYADSVKGRFTISRDNAKNTVYLQMNSLKPEDTAVYYCAAQYRYQRYSYAMEYWGQCTQVTVSS | high polyreactivity
QVQLVESGGGLVQAGGSLRLSCAASGRIFAFYAMGWYRQAPGKERELVAAITWSGGSTYYADSVKGRFTISRDNAKNTVYLQMNSLKPEDTAVYYCAARYRHYFVRGGYWGQGTQVTVSS | high polyreactivity
QVQLVESGGGLVQAGGSLRLSCAASGRIFAFYARGWYRQAPGKERELVAAITSGGSTKYADSVKGRFTISRDNAKNTVYLQMNSLKPEDTAVYYCAAQYRYQRYSYAMEYWGQGTQVTVSS | high polyreactivity
QVQLVESGGGLVQAGGSLRLSCAASGRIFAGYAMGWYRQAPGKERELVAAISNARRTNYADSVKGRFTISRDNAKNNVYLHMNSLKPEDTAVYYCAASRYGRKFSLYDYYYWGQGTQVTVSS | high polyreactivity
QVQLVESGGGLVQAGGSLRLSCAASGRIFAGYAMGWYRQAPGKERELVAAITTGGSTHYADSVKGRFTISRDNAKNTVYLQMNSLKPEDTAVYYCNAKVEFWESWGWLLDDDYWGQGTQVTVSS | low polyreactivity
QVQLVESGGGLVQAGGSLRLSCAASGRIFAHYTMGWYRQAPGKERELVAAISIRGGRTNYTDSVKGRFTISRDNAKNTVYLQMNSLKPEDTAVYYCNARGARYYWYQLGHDYWGQGTQVTVSS | high polyreactivity
QVQLVESGGGLVQAGGSLRLSCAASGRIFAKYAMGWYRQAPGKERELVAAISWGGGSTYYADSVKGRFTISRDNAKNTVYLQMNSLKPEDTAVYYCARRFKYGSTAWRFYYWGQGTQVTVSS | high polyreactivity
QVQLVESGGGLVQAGGSLRLSCAASGRIFALYAMGWYRQAPGKERELVAAITWRGGRTRYADSVKGRFTISRDNAKNTVYLQMNSLKPEDTAVYYCNKRLFASRYDYWGQGTQVTVSS | high polyreactivity
QVQLVESGGGLVQAGGSLRLSCAASGRIFALYAMGWYRQAPGKERELVASITGGTSTNYADSVKGRFTISRDNAKNTVYLQMNSLKPEDTEVYYCAARGYTTGTRNRRYNYWGQGTQVTVSS | high polyreactivity
QVQLVESGGGLVQAGGSLRLSCAASGRIFANNAMGWYRQAPGKERELVAAISWRSGGTYYADSVKGRFTISRDNAKNTVYLQMNSLKPEDTAVYYCARRSPHHGRDYWGQGTQVTVSS | low polyreactivity
QVQLVESGGGLVQAGGSLRLSCAASGRIFAPYAMGWYRQAPGKERELVAAIRISGDSTYYADSVKGRFTISRDNAKNTVYLQMNSLKPEDTAVYYCAAEYYILHWFGYAGYPAYNYWGQGTQVTVSS | high polyreactivity
QVQLVESGGGLVQAGGSLRLSCAASGRIFAPYAMGWYTQAPGKERELVAAISFSGGSTHYADSVKGRFTISRDNAKNTVYLQMNSLKPEDTAVYYCAAGWRSRLYRFGYWGQGTQVTVSS | high polyreactivity
QVQLVESGGGLVQAGGSLRLSCAASGRIFAQYAMGWYRQAPGKERELVADISSGVRTNADSVKGRFTISRDNAKNSVYLQMNSLKPEDTAVSYCNAYYIIFTRNDYWGQGTQVTVSS | low polyreactivity
QVQLVESGGGLVQAGGSLRLSCAASGRIFARKAMGRYRQAPGKEREWVATIRVGGGSTYYADSVKGRFTISRDNAKNTVYLQMNSLKPEDTAVYYFAVRQLYSYPGDRRGYDWGQGTQVTVSS | low polyreactivity
QVQLVESGGGLVQAGGSLRLSCAASGRIFARNAMGWYRQAPGKERELVADITSTGSTNYADSVKGRFTISRDNAMNTVYLQMNSLKPEDTAVYYCAADYYTGYVWEDYYWGQGTQVTVSS | low polyreactivity
QVQLVESGGGLVQAGGSLRLSCAASGRIFARNAMGWYRQAPGKESELVAAITSSGSTYYADSVKGRFTISRDNAKNSVYLQMNSLKPEDTAVYYCAADGHAYRSNFWGQGTQVTVSS | low polyreactivity
QVQLVESGGGLVQAGGSLRLSCAASGRIFARNTMGWYRQAPGKERELVAAISWGGGRTYYADSVKGRFTISRDNAKNTVYLQMNSLKPEDTAVYYCAAETLQIPRGEYWGQGTQVNVSS | low polyreactivity

Sequence | polyreactivity (PSR sort gate)
QVQLVESGGGLVQAGGSLRLSCAASGRIFARNTMGWYRQAPGKERELVAAISWGGGRTYYADSVKGRFTISRDNAKNTVYLQMNSLKPEDTAVYYCAAETLQIPRGEYWGQGTQVTVSS | low polyreactivity
QVQLVESGGGLVQAGGSLRLSCAASGRIFARYAMGWYRQAPGKERELVAAIRTSGGITYYADSVKWRFTISRDNAKNTVYLQMNSLKPEDTEVYYCAADFYSYSSVKYDYWGQGTQVTVSS | low polyreactivity
QVQLVESGGGLVQAGGSLRLSCAASGRIFARYAMGWYRQAPGKERELVAAISRGGSTKYADSVKGRFTISRDNAKNTVYLQMNSLKPEDTAVYYCAGQLWGSPYGAYYAGDYWGQGTQVTVSS | low polyreactivity
QVQLVESGGGLVQAGGSLRLSCAASGRIFARYAMGWYRQAPGKERELVAAITGGGRTNYADSVKGRFTISRDNAKNTVYLQMNSLKPEDTAVYYCAADTGYQNGKGLGYQNFGGYYWGQGTQVTVSS | high polyreactivity
QVQLVESGGGLVQAGGSLRLSCAASGRIFARYTMGWYRQAPGKEREFVAGIRSSGGRTYYADSVKGRFTISRDNAKNTVYLQMNSLKPEDTALYYCNAGGSWYFARYDYWGQGTQVTVSS | low polyreactivity
QVQLVESGGGLVQAGGSLRLSCAASGRIFATNAMGWYRQAPGKEMELVATITRSAGRTYYADSVKGRFTISRDNAKNTVYLQMNSLKPEDTAVYYCAASYWDTEPGYREYDYWGQGTQVTVSS | low polyreactivity
QVQLVESGGGLVQAGGSLRLSCAASGRIFATNAMGWYRQAPGKERELVAIITRSAGRTYYADSVKGRFTISRDKAKNTVYLQMNSLKPEDTAVYYCNTVPRPFDRYGYWGQGTQVTVSS | low polyreactivity
QVQLVESGGGLVQAGGSLRLSCAASGRIFATYAMGWYRQAPGKERELVAAISDSGGRTYYADSVKGRFTISRDNAKNTVYLQMNSLKPADTALYYCAAKNGDRYARGYWGQATQVTVSS | high polyreactivity
QVQLVESGGGLVQAGGSLRLSCAASGRIFAVNAMGWYRQAPGKERELVAAINGGGSTNYADSVKGRFTISRDNAKNTVYFQMNSLKPEDTAVYYCAADVGWRSQTRGYYWGQGTQVTVSS | high polyreactivity
QVQLVESGGGLVQAGGSLRLSCAASGRIFAWYVMGWYRQAPRKEREFVAAIRWRSGSTHYADSVKGRFTISRDNAKNTVYLQMNSLKPEDTAVYYCAVDSRTYNGDYWGQGTQVTVSS | high polyreactivity
QVQLVESGGGLVQAGGSLRLSCAASGRIFAYNTMGWYRQAPGKERELVAGITSGGSTNYADSVKGRFTISRDNAKNTVYLQMNSLQPEDTAVYYCAAVGRWGVTGSHHDAYDYWGQGTQVTVSS | high polyreactivity
QVQLVESGGGLVQAGGSLRLSCAASGRIFAYYAKGWYRQAPGKERELVAAISRSGVSTYYADSVKGRFTISRDNAKNTVYLQMNSLKPEDTAVYYCAARWRSGFTSGDYWGQGTQVTVSS | low polyreactivity
QVQLVESGGGLVQAGGSLRLSCAASGRIFCSYTMGWYRQAPGKERELVAAISWRGGSTYYADSVKGRFTISRDNAKNTVYLQMNSLKPEDTAVYYCAADSRSPPGDYWGQGTQVTVSS | low polyreactivity
QVQLVESGGGLVQAGGSLRLSCAASGRIFCVNAMGWYRQAPGKERELVAAINVSGGITYYADSVKGRFTISRDNAKNTVYLQMKSLKPEDTAVYYCAAVHWTWYTYYGPDYDYWGQGTQVTVSS | low polyreactivity
QVQLVESGGGLVQAGGSLRLSCAASGRIFDAYAMGWYRQAPGKERELLAAITQSGGSTFYADSVKGRFTISRDNAKNTVYLQMNSLKPEDTAVYYCAKDKFWFRVDGHYRMDYWGQGTQVTVSS | low polyreactivity
QVQLVESGGGLVQAGGSLRLSCAASGRIFDCYAMGWDRQAPGKERELVAAIRASGGRTYYADSVKGRFTISRDNAKNTVYLQMNSLKPEDTAVYYCAADSVKYGGDYGGQGTQVTVSS | high polyreactivity
QVQLVESGGGLVQAGGSLRLSCAASGRIFDDNTMGWSRQAPGKERELVAAISSGTSTYYADSVKGRFTISRDNAKNTVYLQMNSLKPEDTAVYYCAAVIKWTKDDYWGQGTQVTVSS | high polyreactivity
QVQLVESGGGLVQAGGSLRLSCAASGRIFDDYAMGWYRPAPGKERELVAAISSSGGSTYYADSLKGRFTISRDNAKNTVYLQINSLKPEDTAVYFCAASSFRSYYSGKYDYWGQGTQVTVSS | high polyreactivity
QVQLVESGGGLVQAGGSLRLSCAASGRIFDENAMGWYRQAPGKERELVATISSSGVSTSYADSVKGRFTISRDNAKNTVYLQMNSLKPEDTAVYYCNAGYRRRYKFDYWGQGTQVTVSS | low polyreactivity
QVQLVESGGGLVQAGGSLRLSCAASGRIFDENAMGWYRQAPGKERELVATISSSGVSTSYADSVKGRFTISRDNAKNTVYLQMNSLKPEDTAVYYCNAGYRRRYKFVYWGQGTQVTVSS | low polyreactivity
QVQLVESGGGLVQAGGSLRLSCAASGRIFDGNAMGWYRQAPGKERELVAAISWTGGSTYYADSVKGRFTISRDNAKNTVYLQMNSLKPEDTAVYYCAADSGWWLDQWSWYDYWGQGTQVTVSS | low polyreactivity
